According to the supplement of paper PMC7125110:
± gives the standard error. This sample holds only a part of the variants without activity.

B1: glmS ribozyme (parent)
chain: AUAAAAGCGCCAGAACUACAGAAAUGUAGUUGACGAGGAGGAGGUUUAUCGAAUUUUCGGCGGAUGCCUCCAAA

Tests used:
Conditions in all cases: with glucosamine-6-phosphate
glucosamine-6-phosphate [1] = variants of: B1; experiment: self-cleavage kobs at 40 uM GlcN6P; higher = faster cleavage; RNA array
Outline: (§1)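 Over ~14 h at 37 °C, tiles were imaged as glucosamine-6-phosphate (40 μM to 10 mM) in HEPES/KCl/Mg(OAc)2 buffer flowed across sequenced MiSeq chips. The chips carried barcoded ribozyme variants transcribed in situ by E. coli RNA polymerase and tracked with a hybridised Cy3 probe. After normalisation to baseline and to non-cleaving reference variants, one- or two-exponential decay fits of per-tile medians gave kobs. kcat and KM followed from weighted Michaelis–Menten fits across concentrations.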

glucosamine-6-phosphate [2] = variants of: B1; experiment: self-cleavage kobs at 160 uM GlcN6P; higher = faster cleavage; RNA array
Outline: as §1

glucosamine-6-phosphate [3] = variants of: B1; experiment: self-cleavage kobs at 640 uM GlcN6P; higher = faster cleavage; RNA array
Outline: as §1

glucosamine-6-phosphate [4] = variants of: B1; experiment: self-cleavage kobs at 10000 uM GlcN6P; higher = faster cleavage; RNA array
Outline: as §1

glucosamine-6-phosphate [5] = variants of: B1; experiment: self-cleavage kobs at 2500 uM GlcN6P; higher = faster cleavage; RNA array
Outline: as §1

Variant | self-cleavage kobs at 40 uM GlcN6P (glucosamine-6-phosphate [1]) | self-cleavage kobs at 160 uM GlcN6P (glucosamine-6-phosphate [2]) | self-cleavage kobs at 640 uM GlcN6P (glucosamine-6-phosphate [3]) | self-cleavage kobs at 10000 uM GlcN6P (glucosamine-6-phosphate [4]) | self-cleavage kobs at 2500 uM GlcN6P (glucosamine-6-phosphate [5])
AUAAAAGCGCCAGAACUACAGAAAUGUAGUUGACGAGGAGGAGGUUUAUCGAAUUUUCGUCGGAUGCCUCUAAA [G60U C71U] | < 1e-05 s⁻¹ | < 1e-05 s⁻¹ | < 1e-05 s⁻¹ | < 1e-05 s⁻¹ | 
AUAAAAGCGCCAGAACUACAGAAAUGUAGUUGACGAGGAGGAGGUUUAUCGAAUUUUCUUCGGAUGCCUCCAAA [G59U G60U] | < 1e-05 s⁻¹ | < 1e-05 s⁻¹ | < 1e-05 s⁻¹ |  | < 1e-05 s⁻¹
AUAAAAGCGCCAGAACUACAGAAAUGUAGUUGACGAGGAGGAGGUUUAUCGAAUUUUCUCCGGAUGCCUCCAAA [G59U G60C] | < 1e-05 s⁻¹ |  | < 1e-05 s⁻¹ | < 1e-05 s⁻¹ | 
AUAAAAGCGCCAGAACUACAGAAAUGUAGUUGACGAGGAGGAGGUUUAUCGAAUUUUCGCCUGAUGCCUCCAAA [G60C G62U] | < 1e-05 s⁻¹ | < 1e-05 s⁻¹ |  | < 1e-05 s⁻¹ | < 1e-05 s⁻¹
AUAAAAGCGCCAGAACUACAGAAAUGUAGUUGACGAGGAGGAGGUUUAUCGAAUUUUCUGCGUAUGCCUCCAAA [G59U G63U] | < 1e-05 s⁻¹ | < 1e-05 s⁻¹ | < 1e-05 s⁻¹ |  | < 1e-05 s⁻¹
AUAAAAGCGCCAGAACUACAGAAAUGUAGUUGACGAGGAGGAGGUUUAUCGAAUUUUCGUCAGAUGCCUCCAAA [G60U G62A] | < 1e-05 s⁻¹ | < 1e-05 s⁻¹ | < 1e-05 s⁻¹ |  | 
AUAAAAGCGCCAGAACUACAGAAAUGUAGUUGACGAGGAGGAGGUUUAUCGAAUUUUCGCCGGCUGCCUCCAAA [G60C A64C] | < 1e-05 s⁻¹ | < 1e-05 s⁻¹ | < 1e-05 s⁻¹ | < 1e-05 s⁻¹ | < 1e-05 s⁻¹
AUAAAAGCGCCAGAACUACAGAAAUGUAGUUGACGAGGAGGAGGUUUAUCGAAUUUUCGAAGGAUGGGUCCAAA [G60A C61A C67G C68G] | 4.45e-05 ± 2.2e-05 s⁻¹ |  |  |  | 
AUAAAAGCGCCAGAACUACAGAAAUGUAGUUGACGAGGAGGAGGUUUAUCGAAUUUUCGGACUAUGCCUCAAAA [C61A G62C G63U C71A] | < 1e-05 s⁻¹ |  |  | < 1e-05 s⁻¹ | 
AUAAAAGCGCCAGAACUACAGAAAUGUAGUUGACGAGGAGGAGGUUUAUCGAAUUUUCCGCGGAUUCCUCCAAA [G59C G66U] | < 1e-05 s⁻¹ | < 1e-05 s⁻¹ | < 1e-05 s⁻¹ | < 1e-05 s⁻¹ | 
AUAAAAGCGCCAGAACUACAGAAAUGUAGUUGACGAGGAGGAGGUUUAUCGAAUUUUCGUCGAAUGCCUCCAAA [G60U G63A] | < 1e-05 s⁻¹ | < 1e-05 s⁻¹ |  |  | 
AUAAAAGCGCCAGAACUACAGAAAUGUAGUUGACGAGGAGGAGGUUUAUCGAAUUUUCGUCGUAUGCCUCCAAA [G60U G63U] | < 1e-05 s⁻¹ | < 1e-05 s⁻¹ | < 1e-05 s⁻¹ | < 1e-05 s⁻¹ | 
AUAAAAGCGCCAGAACUACAGAAAUGUAGUUGACGAGGAGGAGGUUUAUCGAAUUUUCGACCGAUGCCUCCAAA [G60A G62C] | < 1e-05 s⁻¹ | < 1e-05 s⁻¹ |  |  | < 1e-05 s⁻¹
AUAAAAGCGCCAGAACUACAGAAAUGUAGUUGACGAGGAGGAGGUUUAUCGAAUUUUCGUCGGAUGCCCCCAAA [G60U U69C] | < 1e-05 s⁻¹ | < 1e-05 s⁻¹ | < 1e-05 s⁻¹ | < 1e-05 s⁻¹ | 
AUAAAAGCGCCAGAACUACAGAAAUGUAGUUGACGAGGAGGAGGUUUAUCGAAUUUUCGACGGACGCCUCCAAA [G60A U65C] | < 1e-05 s⁻¹ | < 1e-05 s⁻¹ |  | < 1e-05 s⁻¹ | < 1e-05 s⁻¹
AUAAAAGCGCCAGAACUACAGAAAUGUAGUUGACGAGGAGGAGGUUUAUCGAAUUUUCGGAGGCUGCCUCAAAA [C61A A64C C71A] | < 1e-05 s⁻¹ |  |  | < 1e-05 s⁻¹ | 
AUAAAAGCGCCAGAACUACAGAAAUGUAGUUGACGAGGAGGAGGUUUAUCGAAUUUUCGUCCGCUGCCUCCAAA [G60U G62C A64C] | < 1e-05 s⁻¹ |  | < 1e-05 s⁻¹ |  | 
AUAAAAGCGCCAGAACUACAGAAAUGUAGUUGACGAGGAGGAGGUUUAUCGAAUUUUCGAGGGAUGCCUCCAAA [G60A C61G] | < 1e-05 s⁻¹ |  |  | < 1e-05 s⁻¹ | < 1e-05 s⁻¹
AUAAAAGCGCCAGAACUACAGAAAUGUAGUUGACGAGGAGGAGGUUUAUCGAAUUUUCGUUGGAUGCCUCCAAA [G60U C61U] | < 1e-05 s⁻¹ |  | < 1e-05 s⁻¹ | < 1e-05 s⁻¹ | 
AUAAAAGCGCCAGAACUACAGAAAUGUAGUUGACGAGGAGGAGGUUUAUCGAAUUUUCGGACGAUGCCUCCAAA [C61A G62C] | < 1e-05 s⁻¹ | < 1e-05 s⁻¹ | < 1e-05 s⁻¹ | < 1e-05 s⁻¹ | 
AUAAAAGCGCCAGAACUACAGAAAUGUAGUUGACGAGGAGGAGGUUUAUCGAAUUUUCUGGGGGUGCCUCCAAA [G59U C61G A64G] | < 1e-05 s⁻¹ |  | < 1e-05 s⁻¹ | < 1e-05 s⁻¹ | < 1e-05 s⁻¹
AUAAAAGCGCCAGAACUACAGAAAUGUAGUUGACGAGGAGGAGGUUUAUCGAAUUUUCGUCGGAGGCCUCCAAA [G60U U65G] | < 1e-05 s⁻¹ |  | < 1e-05 s⁻¹ | < 1e-05 s⁻¹ | < 1e-05 s⁻¹
AUAAAAGCGCCAGAACUACAGAAAUGUAGUUGACGAGGAGGAGGUUUAUCGAAUUUUCUGCUGAUGCCUCUAAA [G59U G62U C71U] | < 1e-05 s⁻¹ |  |  |  | 
